Laboratory results from publication PMC7037199 (International Journal of Molecular Sciences, 2020).
“And” between values parts separate entries of the source, which are not always exact repeats. Equal entries are not always repeated.

How the values were obtained:
[1] = target: amyloid-β in whole brain lysates of Tg2576 mice (human); assay: non-reducing Tris-Tricine SDS-PAGE with Western blot (SDS-stable bands); whole brain lysates of Tg2576 mice prepared with or without 100 μM TPEN; blots with anti-Aβ (6E10) or anti-apoE; no dithiothreitol or β-mercaptoethanol
[2] = target: the molecule itself; assay: as above

stoichiometry N [1]	Molecule	stoichiometry N [2]
4 and 3	amyloid-β in whole brain lysates of Tg2576 mice (peptide)	–
–	apolipoprotein E in whole brain lysates of Tg2576 mice (natural protein, mouse (endogenous in Tg2576 mouse brain), UniProt P08226 19-311, looked up, Apolipoprotein E endogenous in mouse brain; also called apoE; apoE monomers; source: endogenous, Tg2576 mouse brain lysate) EGEPEVTDQLEWQSNQPWEQALNRFWDYLRWVQTLSDQVQEELQSSQVTQELTALMEDTMTEVKAYKKELEEQLGPVAEETRARLGKEVQAAQARLGADMEDLRNRLGQYRNEVHTMLGQSTEEIRARLSTHLRKMRKRLMRDAEDLQKRLAVYKAGAREGAERGVSAIRERLGPLVEQGRQRTANLGAGAAQPLRDRAQAFGDRIRGRLEEVGNQARDRLEEVREHMEEVRSKMEEQTQQIRLQAEIFQARLKGWFEPIVEDMHRQWANLMEKIQASVATNPIITPVAQENQ	2
